Experimental data published in publication PMC5847377 (Cell, 2017).

What was measured:
ANG variant H13A = ANG variant H13A (human, UniProt P03950 25-147, H13A); assay: ELISA
[1] = target: Angiogenin (ANG), human recombinant (human, UniProt P03950 25-147); assay: equilibrium dialysis
Angiogenin (ANG), human recombinant, sequence (P03950 25-147): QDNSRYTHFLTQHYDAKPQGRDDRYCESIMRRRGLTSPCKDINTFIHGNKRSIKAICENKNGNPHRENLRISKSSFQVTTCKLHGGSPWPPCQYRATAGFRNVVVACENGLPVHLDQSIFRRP

ANG variant H13A, sequence (P03950 25-147 H37A): as the sequence (P03950 25-147) above, with H13A counted along it

binding result (ANG variant H13A): binds
binding result [1]: binds
Binder: TSSEYDSILVEINKR [PLXNB2 peptide hplb2-15-06]
